Experiment [1] concerns the target T1, deoxyhypusine synthase Q83A, His-tagged (human, UniProt P49366 1-369, Q83A, RED-tris-NTA 2nd Generation dye on the His tag).
T1 construct: human deoxyhypusine synthase, Uniprot P49366, residues 1-369, site-directed mutant of the pET24d full-length construct; also called DHS Q83A; source: E. coli, purified; not shown: 6xHis, N-terminal, kept
T1 sequence (looked up): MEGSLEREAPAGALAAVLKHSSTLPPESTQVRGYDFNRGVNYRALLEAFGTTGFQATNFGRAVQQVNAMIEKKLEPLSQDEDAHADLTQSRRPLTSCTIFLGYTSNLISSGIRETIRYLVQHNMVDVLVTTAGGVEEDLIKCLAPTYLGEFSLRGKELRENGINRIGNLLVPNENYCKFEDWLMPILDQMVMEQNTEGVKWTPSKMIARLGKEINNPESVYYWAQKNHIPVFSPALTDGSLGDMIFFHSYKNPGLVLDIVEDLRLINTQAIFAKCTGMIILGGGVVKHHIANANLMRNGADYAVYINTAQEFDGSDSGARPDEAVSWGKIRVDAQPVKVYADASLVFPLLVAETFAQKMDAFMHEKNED
Kind of experiment: MST; His-tagged DHS variants labelled with RED-tris-NTA 2nd Generation, 8.32 nM; eIF5A titrated, sixteen dilutions 0.00175–57.5 μM; 50 mM Tris, 200 mM NaCl, 5 mM β-ME pH 8; Monolith NT.115, 40% excitation power, 60% MST power; no NAD or SPD. The note with it: both partners purified.

Experiment [2] deals with T2, deoxyhypusine synthase N173A, His-tagged (human, UniProt P49366 1-369, N173A, RED-tris-NTA 2nd Generation dye on the His tag).
T2 construct: human deoxyhypusine synthase, Uniprot P49366, residues 1-369, site-directed mutant of the pET24d full-length construct; also called DHS N173A; source: E. coli, purified; not shown: 6xHis, N-terminal, kept
T2 sequence (looked up): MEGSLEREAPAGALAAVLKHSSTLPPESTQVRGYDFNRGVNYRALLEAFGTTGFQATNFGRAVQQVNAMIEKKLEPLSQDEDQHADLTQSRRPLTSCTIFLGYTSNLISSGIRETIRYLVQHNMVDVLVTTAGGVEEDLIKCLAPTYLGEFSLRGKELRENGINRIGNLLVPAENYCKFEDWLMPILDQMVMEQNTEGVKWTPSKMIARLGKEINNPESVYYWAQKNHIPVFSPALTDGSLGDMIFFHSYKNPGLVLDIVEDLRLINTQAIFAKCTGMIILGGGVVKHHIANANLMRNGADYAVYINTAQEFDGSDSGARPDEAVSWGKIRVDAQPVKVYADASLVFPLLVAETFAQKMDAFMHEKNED
The experiment is described as above. The note with it: both partners purified.

Some results are limits rather than exact numbers.

B1: eukaryotic translation factor 5A (eIF5A-1), residues 15-151 (domain or fragment)
chain: not shown
notes: human eIF5A1, residues 15-151, from pET28-MHL (Addgene); The purification protocol removes the tag with TEV; source: E. coli, purified (HisTrap, TEV cleavage, reverse HisTrap, SEC); not shown: His tag, N-terminal, cleaved
The term Kd denotes the constant that tells how readily two partners part at equilibrium. A low value points to a tighter complex. As for B1, the Kd in experiment [1] and in experiment [2] was above 5 µM throughout.

These data come from publication PMC10042821, “Cryo-EM structure of human eIF5A-DHS complex reveals the molecular basis of hypusination-associated neurodegenerative disorders” (Nature Communications, 2023).
